This is an account of results in paper PMC7486241 (Cell Host & Microbe, 2020).

Like-named read-outs stand apart in the source and are kept apart here.

Experiment [1] has as its target T1, recombinant HA of H1N1 A/California/04/2009, biotinylated (Influenza A virus A/California/04/2009 …, UniProt C3W5S1, strain, biotin).
In experiment [2] the target is T2, recombinant HA of H5N1 A/Indonesia/05/2005, biotinylated (Influenza A virus A/Indonesia/05/2005 …, UniProt C5MRF2, strain, biotin).
In experiment [3] the target is T1, recombinant HA of H1N1 …. Briefly: Meso Scale Discovery (MSD) electrochemiluminescence binding assay. Conditions: both partners purified.
The target in experiment [4] is T2, recombinant HA of H5N1 …. The description is as above. Conditions: both partners purified.
In experiment [5] the target is H9N2 A/Hongkong/1073/1999 hemagglutinin (HA), biotinylated recombinant (influenza A virus A/Hongkong/1073/1999 …, biotin). Kind of experiment: BLI. Conditions: both partners purified.
Experiment [6] concerns the target H3N2 A/Texas/50/2012 hemagglutinin (HA), biotinylated recombinant (influenza A virus A/Texas/50/2012 (H3N2), biotin). Briefly: BLI. Conditions: both partners purified.
For experiment [7], the target named is H7N9 A/Shanghai/02/2013 hemagglutinin (HA), biotinylated recombinant (Influenza A virus A/Shanghai/02/2013 …, UniProt R4NN21, biotin). Kind of experiment: BLI. Conditions: both partners purified.
In experiment [8] the target is recombinant HA of H7N9 A/Shanghai/02/2013, biotinylated (Influenza A virus A/Shanghai/02/2013 …, UniProt R4NN21, strain, biotin). Briefly: Meso Scale Discovery (MSD) electrochemiluminescence binding assay. Particulars: both partners purified.
Experiment [9] addresses T3, HA ectodomain of A/California/04/2009 (H1N1), cleaved mature HA (HA1/HA2) (influenza A virus A/California/04/2009 …).
T3 construct: copies: 3 + 3
Briefly: crystal structure. Particulars: both partners purified.

The target in experiment [10] is T4, recombinant HA of H3N2 A/Hongkong/1/1968, biotinylated (Influenza A virus A/Hong Kong/1/1968 …, UniProt Q91MA7, strain, biotin).
T4 construct: source: plasmid pCMV/R-HA-AviHis, Andrews et al., 2017
Briefly: Meso Scale Discovery (MSD) electrochemiluminescence binding assay. Conditions: both partners purified.

The target in experiment [11] is recombinant HA of H9N2 A/Hongkong/1073/1999, biotinylated (Influenza A virus A/Hong Kong/1073/1999 …, UniProt Q9ICY5, strain, biotin). The description is as above. Particulars: both partners purified.
In experiment [12] the target is recombinant HA of H1N1 A/New Caledonia/20/1999, biotinylated (Influenza A virus A/New …, UniProt Q6WG00, strain, biotin). The experiment is described as above. Conditions: both partners purified.
In experiment [13] the target is recombinant HA of H3N2 A/Texas/50/2012, biotinylated (Influenza A virus A/Texas/50/2012 (H3N2), UniProt R4L1D1, strain, biotin). Described as above. Conditions: both partners purified.

B1: 54-1B01 (antibody, V domains shown)
VH: QVQLQQSGPGVVKPSQSLALTCAISGDSVSNDRVAWIWIRQSPSRGLEWLGRTYYRSKWYNDYANSVRGRMTINPDTSKNQFSLNLDSVTPDDTAVYYCARGMIFGRPLTGWYFDFWGRGTLVTVSS
VL: EIVLTQSPGTLSLSAGERVTLFCRASQHVSSGYLAWYQQKPGQAPRLLIYGATNRATGIPDRFSGSGSGTDFALTISRLEPEDFAVYYCQQFDSSSMYTFGQGTKLEIK
For B1, the binding result in experiment [1] and in [2] was “binds” throughout.

B2: early intermediate of clonotype A, IgG (antibody, V domains shown)
VH: QVQLQQSGPGLVKPSQTLSLTCAISGDSVSSNSAAWNWIRQSPSRGLEWLGRTYYRSKWYNDYAVSVKSRITINPDTSKNQFSLQLNSVTPEDTAVYYCARGMIFNWPLGGWSFDLWGRGTLVTVSS
VL: EIVLTQSPGTLSLSPGERATLSCRASQSVSSSYLAWYQQKPGQAPRLLIYGASSRATGIPDRFSGSGSGTDFTLTISRLEPEDFAVYYCQQFDSSSMYTFGQGTKLEIK
For the molecule B2, in experiment [3], the binding result is “binds”.

B3: 54-1G07 (clonotype A), IgG (antibody, V domains shown)
VH: QVQLQQSGPGLVKPSQTLALTCGISGDTVSNNRVAWNWIRQSPSRGLEWLGRTYYRSKWYSDYSKSVTGRMTINPDTSKNQFSLHLDSVTPADTAVYYCARGMIFGWPLTGWYFDLWGRGTLVTVSS
VL: EIVLTQSPGTLSLSPGERVTLLCRASHHVSSGYLAWYQQKPGQAPRLLIYGATNRATGIPDRFSGSGSGTDFALTISRLEPEDFAVYYCQQFDSSSMYTFGQGTKLEIK
notes: IgG format
Take B3: the binding result in experiment [3] and in [4] was “binds” in each case.

B4: 54-1G07 Fab (Fab, V domains shown)
VH: QVQLQQSGPGLVKPSQTLALTCGISGDTVSNNRVAWNWIRQSPSRGLEWLGRTYYRSKWYSDYSKSVTGRMTINPDTSKNQFSLHLDSVTPADTAVYYCARGMIFGWPLTGWYFDLWGRGTLVTVSS
VL: EIVLTQSPGTLSLSPGERVTLLCRASHHVSSGYLAWYQQKPGQAPRLLIYGATNRATGIPDRFSGSGSGTDFALTISRLEPEDFAVYYCQQFDSSSMYTFGQGTKLEIK
B4: the binding result in experiment [5] is on record as “no binding (tested: 3200 nM (highest Fab concentration))”.

B5: 58-6E11 Fab (Fab, V domains shown)
VH: QVQLPQSGPGLVKPSQTLSLTCAISGDSVSSNSAVWTWIRQSPSRGLEWLGRTYYRSKWYNDYAVSVESRITINPDTSKNQFSLQLKSVTPEDTAVYFCARSGITIFGVSVMAMDIWGQGTTVIVSS
VL: EIVLTQSPGTLSLSPGERATLSCRASQNVAVSYLAWYQQKPGQPPRLLIYGASSRATGIPGRFTGSGSGTDFTLTINRLEPEDSAVYYCQQYATSPRALTFGGGTKVEIK
In the case of B5, the binding result in experiment [5], in experiment [6] and in [7] was “no binding (tested: 3200 nM (highest Fab concentration))” throughout.

B6: ClonB UCA Fab (Fab, V domains shown)
VH: QVQLQQSGPGLVKPSQTLSLTCAISGDSVSSNSAVWTWIRQSPSRGLEWLGRTYYRSKWYNDYAVSVKSRITINPDTSKNQFSLQLKSVTPEDTAVYYCARSGITIFGVIIMAMDIWGQGTTVTVSS
VL: EIVLTQSPGTLSLSPGERATLSCRASQNVAVSYLAWYQQKPGQPPRLLIYGASSRATGIPDRFTGSGSGTDFTLTINRLEPEDSAVYYCQQYGSSPRALTFGGGTKVEIK
notes: also called early intermediate of clonotype B; EI (clonotype B)
Regarding B6, the binding result in experiment [5] and in experiment [6] was “no binding (tested: 3200 nM (highest Fab concentration))” in each case.

B7: 54-1G05 VL early intermediate, IgG (54-1G05 VH paired with VL from the early intermediate of clonotype B) (antibody, V domains shown)
VH: QVQLQQSGPRLVKPSQTLSLTCAISGDSVSSSSAVWTWIRQSPSRGLEWLGRTYYRSKWYDDYAVSVQGRITINPDTSKNQISLQLNSVTPDDTAVYYCARSSINIFGVFVMAMDVWGQGTAVTVSS
VL: EIVLTQSPGTLSLSPGERATLSCRASQNVAVSYLAWYQQKPGQPPRLLIYGASSRATGIPDRFTGSGSGTDFTLTINRLEPEDSAVYYCQQYGSSPRALTFGGGTKVEIK
notes: IgG format
For the molecule B7, the binding result in experiment [8] is recorded as “binds”.

B8: early intermediate of clonotype B, IgG (antibody, V domains shown)
VH: QVQLQQSGPGLVKPSQTLSLTCAISGDSVSSNSAVWTWIRQSPSRGLEWLGRTYYRSKWYNDYAVSVKSRITINPDTSKNQFSLQLKSVTPEDTAVYYCARSGITIFGVIIMAMDIWGQGTTVTVSS
VL: EIVLTQSPGTLSLSPGERATLSCRASQNVAVSYLAWYQQKPGQPPRLLIYGASSRATGIPDRFTGSGSGTDFTLTINRLEPEDSAVYYCQQYGSSPRALTFGGGTKVEIK
As to B8, in experiment [3], the binding result is on record as “binds”.

B9: 54-4H03 Fab (Fab, V domains shown)
VH: QVQLQQSGPGLVKPSQTLSLTCAISGDSVSSNSVAWNWIRQSPSRGLEWLGRTYFRSKWYTDYAESLKSRMTINPDTSKNEFSLHLKSVTSDDTAVYYCVRGIIFNWPLGGWSFDLWGRGTLVSVSS
VL: EIVLTQSPGTLSLSPGDSATLSCRASQSVASSYLAWYQQKPGQSPRLLIYATINRAADIPDRFSGSGSGTDFALTISRLEPEDFAVYYCQQFDSSSMYTFGQGTKLEIT
In the case of B9, the binding result in [9] is listed as “binds”.

B10: 54-4H03 (clonotype A), IgG (antibody, V domains shown)
VH: QVQLQQSGPGLVKPSQTLSLTCAISGDSVSSNSVAWNWIRQSPSRGLEWLGRTYFRSKWYTDYAESLKSRMTINPDTSKNEFSLHLKSVTSDDTAVYYCVRGIIFNWPLGGWSFDLWGRGTLVSVSS
VL: EIVLTQSPGTLSLSPGDSATLSCRASQSVASSYLAWYQQKPGQSPRLLIYATINRAADIPDRFSGSGSGTDFALTISRLEPEDFAVYYCQQFDSSSMYTFGQGTKLEIT
Regarding B10, the binding result in experiment [3] and in [8] was “binds” in each case.

B11: 54-4H03 VH G100cT/S100fY, IgG (54-4H03 light chain) (antibody, V domains shown)
VH: QVQLQQSGPGLVKPSQTLSLTCAISGDSVSSNSVAWNWIRQSPSRGLEWLGRTYFRSKWYTDYAESLKSRMTINPDTSKNEFSLHLKSVTSDDTAVYYCVRGIIFNWPLTGWYFDLWGRGTLVSVSS
VL: EIVLTQSPGTLSLSPGDSATLSCRASQSVASSYLAWYQQKPGQSPRLLIYATINRAADIPDRFSGSGSGTDFALTISRLEPEDFAVYYCQQFDSSSMYTFGQGTKLEIT
For B11, the binding result in experiment [4] and in experiment [8] was “no binding” in each case.

B12: 54-1G05 (clonotype B), IgG (antibody, V domains shown)
VH: QVQLQQSGPRLVKPSQTLSLTCAISGDSVSSSSAVWTWIRQSPSRGLEWLGRTYYRSKWYDDYAVSVQGRITINPDTSKNQISLQLNSVTPDDTAVYYCARSSINIFGVFVMAMDVWGQGTAVTVSS
VL: EIVLTQSPGTLSLSPGERVTLSCRASQTVYNSYLAWYQQKPGQAPTLLIYGTSTRATGVPDRFSGSGSGTVFTLTISRLEPEDFAVYFCQQYSTSPRALTFGGGTKVEIK
notes: source: Expi293 cells, transfected, purified from the supernatant (Protein A)
Turning to B12, the binding result in experiment [3], in [10], in experiment [11], in experiment [12], in experiment [4] and in experiment [13] was “binds” throughout. In addition, the binding result in experiment [8] is reported as “binds”.
